This test concerns the target T1, LOR-1 (lysyl oxidase related protein-1) (human, UniProt Q9Y4K0 26-774, limits assumed).
T1 construct: also called hLOR1
T1 sequence: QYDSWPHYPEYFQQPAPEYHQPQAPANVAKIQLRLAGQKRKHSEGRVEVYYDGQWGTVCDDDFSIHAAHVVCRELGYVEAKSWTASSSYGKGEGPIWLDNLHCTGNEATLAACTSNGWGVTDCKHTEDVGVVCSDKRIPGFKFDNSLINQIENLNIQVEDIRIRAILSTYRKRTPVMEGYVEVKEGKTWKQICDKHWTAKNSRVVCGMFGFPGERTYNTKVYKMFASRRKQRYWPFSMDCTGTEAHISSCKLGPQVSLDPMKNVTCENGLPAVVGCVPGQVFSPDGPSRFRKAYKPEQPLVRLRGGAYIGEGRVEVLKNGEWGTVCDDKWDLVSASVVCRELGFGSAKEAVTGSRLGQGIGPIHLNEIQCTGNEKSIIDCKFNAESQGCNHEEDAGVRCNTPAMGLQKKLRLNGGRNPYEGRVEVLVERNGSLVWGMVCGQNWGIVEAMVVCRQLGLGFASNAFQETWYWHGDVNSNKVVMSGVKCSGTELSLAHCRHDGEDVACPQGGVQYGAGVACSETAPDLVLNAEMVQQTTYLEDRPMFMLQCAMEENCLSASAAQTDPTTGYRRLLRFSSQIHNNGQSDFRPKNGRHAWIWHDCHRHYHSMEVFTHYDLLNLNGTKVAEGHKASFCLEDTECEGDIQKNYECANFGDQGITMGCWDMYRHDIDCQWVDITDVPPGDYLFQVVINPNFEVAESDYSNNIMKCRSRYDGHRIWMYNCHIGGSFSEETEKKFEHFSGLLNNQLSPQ
The experiment in a line: PF4 affinity column, 35S-methionine labeled cells, SDS-PAGE.

B1: Human recombinant platelet factor-4 (PF4, GenBank Accession number M20901) (ligand, UniProt P02776 32-101, looked up)
chain: EAEEDGDLQCLCVKTTSQVRPRHITSLEVIKAGPHCPTAQLIATLKNGRKICLDLQAPLYKKIIKKLLES
notes: Supplied by Repligen Corp
As for B1, the binding result is given as “binds”.

Values taken from US20060127402A1 (TECHNION RESEARCH AND DEVELOPMENT FOUNDATION, published 2006).
